Measurements taken from patent US20220195418.

Molecular target: T7 RNAP PACE variant L2-108.2 (mutations only in figure) (bacteriophage T7) (UniProt P00573)
Assay: cell_activity
Conditions: lacZ reporter; relative to starting RNAP on T7 promoter

Sequence | activity [%]
TAATACGACTCACTATA (double strand) [T7 promoter] | 100
AATTAACCCTCACTAAA (double strand) [T3 promoter] | 270
